Bridges are numbered along the chain shown (N, C = ends). Where no end group is shown, it is not given here. [ ]: non-standard residue; d: D form. hCys = N[C@@H](CCS)C(=O)O
Key:
[1] = biological target: T1, bovine serum albumin (bovine, UniProt P02769 25-607); assay: size exclusion chromatography with fluorescence detection at 565 nm
T1 construct: also called BSA
Experimental: The reaction was terminated by the addition of 10 μL of 1 M Tris-HCl (pH=7.0). Then, size exclusion chromatography was performed using Superdex™ 200 10/30GL 1.0 cm in diameter×30 cm (GE Healthcare Japan Corp.); flow rate: 0.3 ml/min; running buffer: PBS pH 7.4. Assay was conducted using a fluorescence detector RF-10A (Shimadzu Corp.) (excitation light: 541 nm, fluorescence: 565 nm).

[2] = biological target: T2, human IgG Fc (human, UniProt P01857-1 108-330 = IgG part); assay: X-ray crystal structure of the Fc/peptide complex
T2 construct: domain: Fc; also called human IgG1 Fc

T1 sequence (P02769 25-607 limits assumed): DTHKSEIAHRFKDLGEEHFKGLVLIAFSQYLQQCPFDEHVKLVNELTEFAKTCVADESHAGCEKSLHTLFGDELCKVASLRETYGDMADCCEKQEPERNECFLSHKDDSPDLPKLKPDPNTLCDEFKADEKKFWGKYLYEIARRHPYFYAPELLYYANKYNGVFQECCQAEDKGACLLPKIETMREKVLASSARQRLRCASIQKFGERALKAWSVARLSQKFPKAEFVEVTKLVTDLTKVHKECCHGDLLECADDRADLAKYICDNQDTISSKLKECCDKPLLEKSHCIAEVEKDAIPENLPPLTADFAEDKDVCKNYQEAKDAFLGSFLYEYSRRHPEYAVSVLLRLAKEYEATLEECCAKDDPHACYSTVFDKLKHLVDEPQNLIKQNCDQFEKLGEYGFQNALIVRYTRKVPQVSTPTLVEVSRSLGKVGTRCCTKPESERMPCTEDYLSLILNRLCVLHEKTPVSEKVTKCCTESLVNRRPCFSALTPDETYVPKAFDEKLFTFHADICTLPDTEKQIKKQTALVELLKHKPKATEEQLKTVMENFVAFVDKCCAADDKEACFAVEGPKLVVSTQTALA

B1: fluorescent (5/6 TAMRA-PEG4) IgG-binding peptide modified with DSG (peptide)
peptide: GPDCAYHXGELVWCTFH
modifications: X at position 8 (lysine in Type I(R8K)) modified with DSG; N-terminal amino-PEG4 modified with 5/6 TAMURA succinimidyl ester (fluorescent dye); C-terminal amide; intramolecular S-S bond
notes: also called DSG-cross-linked peptide
Q: Does B1 bind [1]?
A: no binding

B2: cyclic homocysteine peptide G(HC)DCAYHRGELVWCT(HC)H-NH2 (peptide)
peptide: G[hCys]DCAYHRGELVWCT[hCys]H-NH2
modifications: disulfide 4-14, 2-16; N-terminus assumed
SMILES: CC(C)C[C@@H]1NC(=O)[C@H](CCC(=O)O)NC(=O)CNC(=O)[C@H](CCCNC(=N)N)NC(=O)[C@H](Cc2c[nH]cn2)NC(=O)[C@H](Cc2ccc(O)cc2)NC(=O)[C@H](C)NC(=O)[C@@H]2CSSC[C@H](NC(=O)[C@H](Cc3c[nH]c4ccccc34)NC(=O)[C@H](C(C)C)NC1=O)C(=O)N[C@@H]([C@@H](C)O)C(=O)N[C@H](C(=O)N[C@@H](Cc1c[nH]cn1)C(N)=O)CCSSCC[C@H](NC(=O)CN)C(=O)N[C@@H](CC(=O)O)C(=O)N2
notes: Peptide put into the crystals with Fc; Residue numbers in the text (Arg8) count on the 17-residue peptide
Q: Does B2 bind [2]?
A: binds

B3: fluorescent (5/6 TAMRA-PEG4) IgG-binding peptide modified with DSS (peptide)
peptide: GPDCAYHXGELVWCTFH
modifications: X at position 8 (lysine in Type I(R8K)) modified with DSS; N-terminal amino-PEG4 modified with 5/6 TAMURA succinimidyl ester (fluorescent dye); C-terminal amide; intramolecular S-S bond
notes: also called DSS-crosslinked peptide
Q: Does B3 bind [1]?
A: no binding

Reference: patent publication US20240368223A1 (KAGOSHIMA UNIVERSITY, published 2024)
